± gives the half width of the 95% confidence interval. Bounds are passed on as bounds.

The nature of one data set: folding stability dG unfold from chymotrypsin proteolysis; higher = more stable. As to the method: (§1)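 Folding stability of de novo designed mini-proteins (<80 aa, no Cys; designed by TrROS, TrMRF, ProteinMPNN and the joint model) was measured by cDNA display proteolysis with trypsin and chymotrypsin. Each protease was used at 11 concentrations in a threefold dilution series plus a no-protease condition. K50 was inferred by Bayesian fitting of sequencing counts, and dG unfold was derived against a sequence-predicted unfolded-state K50 (Tsuboyama et al. method). Sequences shown include variable-length N-terminal GS-type padding (SAGGSAGG...) inside a display construct carrying a PA tag. Rows were kept only if the AF2 dimer inter-PAE was >15, to exclude likely homo-oligomers.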
For the sequence “NYRVEIDDMELFPAPPGQEIRIPLKVEDDGQEHELEEIQVNPDDGYITMKVKIEPDGEPKEFTITIPIPPGS [r1_47_TrROS]”, the “folding stability dG unfold” value was found to be 0.158 ± 0.52 kcal/mol.
As for “SAGEVEKITLTIVVEDPNMTLEEILKKALEALGLKEEDVEVKIVSIKEETLPDGRKLTVIEVEITVPKPSAG [r5_528_TrROS_Hall]”, the “folding stability dG unfold” value was 3.43 ± 0.26 kcal/mol.
Take “SAGGMRFRVRLFRPGRWLPPREVEPGAEAALRELPADVPFVVIEFDDPRGRRRVFFRSPEELRRAVAASAGG [r13_299_TrMRF]”: the “folding stability dG unfold” value came out at 0.379 ± 0.66 kcal/mol.
“SAGGSAGGSAGGAEELLENGRLRIEWPNGRTHTIDLDDGKIEPPPGFPPDNIRRVEIVPPSAGGSAGGSAGG [r7_566_TrROS]”: the “folding stability dG unfold” value stood at 0.444 ± 0.24 kcal/mol.
On to “SAGGSAGGSAGGNIVDRLQERFPNFPPKSVDVKMNPNGNRSVDIKFDGPPEMRDALLELSAGGSAGGSAGGS [r10_1089_TrROS]”, for which the “folding stability dG unfold” value was determined as 0.128 ± 0.059 kcal/mol.
For the sequence “SAGGSAVKITVEEREIIVPPEEDPLAENNPGIVVKKKTVKYEKEMTPEEKEKFLKEIEEKTGIKIISAGGSA [r15_347_JUSTAS]”, the “folding stability dG unfold” value is -0.162 ± 0.24 kcal/mol.
As for “SAGGSAVTAEWILDHMRDMGMPEEDVKIDDVQLEREPDKVVIRIEITMRHPNDGKQRRMDMEIPLPSAGGSA [r15_863_TrROS]”, the “folding stability dG unfold” value is -0.164 ± 0.34 kcal/mol.

The nature of the next data set: folding stability dG unfold (combined trypsin and chymotrypsin); higher = more stable. As to the method:
as §1
Regarding “SAGGSGGSTTPTFEEHVITGPLPVEIKVKKTTLNVTGSSAPSTTTTTTFYDPSGKKLSTKTTTTSSSAGGSA [r2_215_JUSTAS]”, the “folding stability dG unfold” value is below -1 kcal/mol.
Turning to “SAGGSITISMPWNDPEKAAKALEEAFGVDVPPKVERDPGNGWYTITLPNLGRKIQIDGNKVKIEPPSAGGSA [r2_205_TrROS]”, the “folding stability dG unfold” value is below -1 kcal/mol.
On the same count and under the same terms, for “SAGGSKVPLDDFDKVTIGVDPKTGKTTASIYYPSDGSTVTFPGKEIPEVLASNPNIKTVETEPLPGSAGGSA [r2_159_JUSTAS]” the value was below -1 kcal/mol; for “SAGGSMKSEKVFTDPGPFDGASVTVTATEDGTITITVVDPDGVPKTFTKKVEKGNPEEVVKEAIKESAGGSA [r2_298_TrMRF]”, below -1 kcal/mol.
“SAGGSMPIDDIKEINIQYNPNTGTVMVPFRLPNGHEIMAEQKYDPEAGWPVIPIRVNDGKPIEIPISAGGSA [r2_490_TrROS]”: the “folding stability dG unfold” value is below -1 kcal/mol.
Take “SAGGSPITPEIAQELAEEFPNWDIHVEPRKPGEEIRFPNGMRIFDDPNGYRVMVHNPNGKPRQLPVSAGGSA [r2_166_TrROS]”: the “folding stability dG unfold” value is below -1 kcal/mol.
With “SAGGSPPVPDDETVEIEVPDYKITFHPATQEVTVQTNDPAKAKAVIEALPYPIPYKNIKIVPPEKLSAGGSA [r2_418_JUSTAS]”, the “folding stability dG unfold” value is below -1 kcal/mol.
Consider “SAGGSPVVPLPPDATATLTETVKVPRVLFDEEGNELEKLEVERTVTTTYTRLPGGEVATTTTTTTESAGGSA [r2_154_JUSTAS]”, for which the “folding stability dG unfold” value is below -1 kcal/mol.
On to “SAGGSTYTVTRTEELPDGTVRAELTVTLDGAPVPATGTTETAPGGRRRVTVTFPSDPSLSLTTPEESAGGSA [r2_376_JUSTAS]”, for which the “folding stability dG unfold” value is below -1 kcal/mol.
Regarding “SAGGTELAERIRAMGGFEVVEIKEGEGKPKVTVRTPDPALAEELRAFLAADPRVESVELEELSPELKSAGGS [r16_671_JUSTAS]”, the “folding stability dG unfold” value is below -1 kcal/mol.
Regarding “SAGIRFRPGARIEWQNPDNGKKVEIRMREIRDRIQEINGNENPEQITAEQIQEWAREHGFRPIKIEPPSAGG [r19_67_TrROS]”, the “folding stability dG unfold” value was below -1 kcal/mol.
Still for that read-out and setting: for “SAGKIKEIEMDPPHNQMTLELPEKGRKITINPNMGHLDIEPPDGKPREVPVPNPSDMKEAIKKVLKELKSAG [r5_467_TrROS]” the value was below -1 kcal/mol.
As for “SAGKIRIVDSPDQLENAPPGDIVIHHRPSPETGRPRVRLAKYPDGKWEPLARMDSDGKIELPKELKEAISAG [r5_490_TrROS]”, the “folding stability dG unfold” value is below -1 kcal/mol.
As for “SAGKPRPIINIEWQPNPDGQPNLTISVMRRDPKNGDMKPREYTIDPGADPEDLIKKALDEGADYVSIHPSAG [r5_37_TrROS]”, the “folding stability dG unfold” value was below -1 kcal/mol.
Turning to “SAGMKPGEPIMTIKIKVKDPDNGKEVPINIPVRYQYDNGEPKRPISPDDALEEAKDLADRLKKDPNIKISAG [r5_426_TrROS]”, the “folding stability dG unfold” value was below -1 kcal/mol.
Regarding “SAGMMVLVRNKNGETVPLEDMTEEQLKNMDIEEVEILPPPEIKVEEEVKVDENGNLTVKKKIEIKIEFSAGG [r19_232_TrROS_Hall]”, the “folding stability dG unfold” value is below -1 kcal/mol.
For “SAGMPELVEFPFPIPPEFPDIPPETLAKLIAEELNEEEFSVEVKSYDPEKPIVTLTVTKDGKPVAEFTDSAG [r5_80_TrMRF]”, the “folding stability dG unfold” value is below -1 kcal/mol.
As for “SAGMPVTTVTLYTTDPATGTPTATPGPISDVLALLKREGLPVEREEYDPSPQTHTVYSKGPGKDYIVAGSAG [r5_521_JUSTAS]”, the “folding stability dG unfold” value was below -1 kcal/mol.
The same measure, in the same setting: for “SAGMTIPVTSPEEARQVAEELAPEVGKEVTIEEAPPSVSTDNLPSNAIVLVNPDSGVRYVATIKEPDHHSAG [r5_173_JUSTAS]” the value was below -1 kcal/mol; for “SAGPEPIKIKILKMQPNPNGTPMIRVKVVPPDGKPGEIPIPQEMLKEGNLDDMTIDDIAEEFPGLKPVSAGG [r19_74_TrROS]”, below -1 kcal/mol.
In the case of “SAGPFYVRMKIEVPRKTYDPEDGEPKQEKREIDIWFPMKSEEQARDHADKLAEELPPENVKITDIEPFSAGG [r19_209_TrROS]”, the “folding stability dG unfold” value is below -1 kcal/mol.
For “SAGPPNDVKPIEIPFKMENGSNFRAEIWRDPGDGKVFVPIEYPNPWHRKRMQNWARELAEEHGIDRVEPSAG [r5_99_TrROS]”, the “folding stability dG unfold” value is below -1 kcal/mol.
For “SAGQIRIEIEPNPNGKPKIRITMHNPDGPPREREIPIDPGETVSDIADEFFENGMPIRPGSTIEDLIESAGG [r19_263_TrROS]”, the “folding stability dG unfold” value is below -1 kcal/mol.
Turning to “SAGSATFTRATTPLPEVTLSWEELEELVKDPNIDSISVHSPTADRTLPAPEGKITGPLAPDQTVTLVGSAGG [r19_152_JUSTAS]”, the “folding stability dG unfold” value was below -1 kcal/mol.
Still for that read-out and setting: for “SAGSFEYEFENGSSNRVEVDPENKEVKVEYEPKEGKLIAALPEKGVVLVPIKDKKVEEAAKEVIEKLKKSAG [r5_447_TrMRF]” the value was below -1 kcal/mol.
As for “SAGSFSVRLTLRAPDGTTETVSGPAAVAAAIAALPADETAESSVPGSSSSSTVTLPAGGTFSLSTLSSSSAG [r5_506_JUSTAS]”, the “folding stability dG unfold” value was below -1 kcal/mol.
Same read-out and setting: for “SAGSMKLLILATSYPPDGSTTTKPIFGTEEDLKAAVEALPDGEKAATIIEVSEEGLKTIKTETRPPSLGSAG [r5_970_JUSTAS]” the value was below -1 kcal/mol; for “SAGSYTVDVSYRVPVRLSPAGAVEVPVEVELKRYLPDGVPLGEEEIEEEEEKLAEEIAKELAEALAPLSAGG [r19_389_JUSTAS]”, below -1 kcal/mol.
In the case of “SAKAKVVEIKEENGKVIIKIEVEDENGNKKTIEIELPKDDIEIVEVDEDKIVIYNKKTGKKITLDLKDLSAG [r14_947_TrROS_Hall]”, the “folding stability dG unfold” value is above 6 kcal/mol.
Consider “SAMPPGAIVKVKIISKERRIDNELGVEVVGYTEKEEDVKVLEVKEPGEKVELKLEIPNLPEGSELELGFSAG [r14_412_TrMRF]”, for which the “folding stability dG unfold” value is below -1 kcal/mol.
With “SAMVVPVELEGPVGDLDELKEKTKKEVEEELGLPDDLENITVTVEKIEPLPDPEGKPVTTRIKLKITVKSAG [r14_736_JUSTAS]”, the “folding stability dG unfold” value is below -1 kcal/mol.
For the sequence “SAPDLGSGTLLTTESRAVTDPEGNTTWVTRPVVVPVEREYFVTDPETGEWAPLSTYDPATGTLHDPNHHSAG [r14_122_JUSTAS]”, the “folding stability dG unfold” value is below -1 kcal/mol.
Same read-out and setting: for “SARLFTIRIQGPPEQLKDALQEEFDMEVNIEPEPNGSTTITFELPPNNYDRFEEALEQLPGFPIEIEPVSAG [r14_521_TrROS]” the value was below -1 kcal/mol; for “SARYKRNPDGKPRREEPVPPKPPTIEIPIPFNMPPDDPEMMKRFAEMIADMLADEHGLPPNVPIHISMNSAG [r14_453_TrROS]”, below -1 kcal/mol.
Take “SATLRDLIKELGFPMDIEHDGDSVKITMRNPDDPNPGQEQTFEIPPPNGKPLKFKIRMRNNGIQEIEPESAG [r14_401_TrROS]”: the “folding stability dG unfold” value was below -1 kcal/mol.
Turning to “SATVTVETTLSDVDTLLAAAEAAGWAVTRTQEPSSPLRRATITAPLPDGTAAPVTVTVDPASGRAVLVGSAG [r14_169_JUSTAS]”, the “folding stability dG unfold” value is below -1 kcal/mol.
With “SKVDIDVERDPGNGHYEYTVRNPNNGYDIKVRIADMDPEHGPIQVEIEPLDDGKKVHYPMPWDDIKDLIKSA [r9_1221_TrROS]”, the “folding stability dG unfold” value was below -1 kcal/mol.
Consider “SMPYLVRVLAELPDGELLGEAEAEVLPGEELVFSDPLPVRVRAVIYDPETDEPREVEADGRVGVLVVPVESA [r9_272_TrMRF]”, for which the “folding stability dG unfold” value is below -1 kcal/mol.
Consider “SMTYTVTKESSVSPLPDGSPVTSTTTTVTAPTEPVTVTTSTSVTPLSTGTSTTTSTTTTTVPPDDPLAASSA [r9_34_JUSTAS]”, for which the “folding stability dG unfold” value is below -1 kcal/mol.
As to “SMYYVATVIRKKKDGGPYLGPEVRIVESPEEAEEIALEPAPERDYVVELKVEEVPLEELENPEKIKELLESA [r9_864_TrMRF]”, the “folding stability dG unfold” value is below -1 kcal/mol.
In the case of “SNFYFTIEIERPDPNGEEKKIEITIPMERINQELQEEHGMESPQEAQEYFAKEIAEKFDENGYKVKIEPFSA [r9_868_TrROS]”, the “folding stability dG unfold” value is -0.316 ± 0.52 kcal/mol.
“SPAIVLATSDPSTRRRTVFVAQSHPPGPAVPDLGFDIPIGDNLYLGASISVSPSGPVNIDSIIVGPPDSLSA [r9_780_TrMRF]”: the “folding stability dG unfold” value is below -1 kcal/mol.
As to “SPKIKITEVEPNPGNMEKRTIELPNRPITLYWPPENGYYRVKIEDPDNNKERQIMVPPGQPPEEIAKDLLSA [r9_522_TrROS]”, the “folding stability dG unfold” value was below -1 kcal/mol.
On the same count and under the same terms, for “SSFKLYKRPDGSPYLTAPVPEKNLKSALDPSTGVPYIATTPGGELGALSLLADSLEELLKLPPLTFTKPGSA [r9_205_JUSTAS]” the value was below -1 kcal/mol.
“SSFKTKITILEERELEPVPDRNGTPNPVRLVTIAVTNLGPESVSPEVVEKVKKEVEEKFKEEGIPVEIKDES [r1_305_JUSTAS]”: the “folding stability dG unfold” value was below -1 kcal/mol.
For “SSVSFDPATGTTTVTTTTPTGPDSPVLTTTTTTLTTNPDGTVTTTTTTTTTTVAPAAPLLTPANLALRAALS [r1_4_JUSTAS]”, the “folding stability dG unfold” value was below -1 kcal/mol.
